From the supplement of paper PMC12042874
± gives the uncertainty stated by the source.

Test: amyloid nucleation score (Sup35N fusion, yeast selection) (log enrichment); library NNK3; higher = more nucleation; inactive = no reads after selection
Procedure, shortened: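 Sup35N fusions to peptides of 20 random codons were expressed in psi-negative yeast, induced 24 hours with 100 μM copper sulfate, and grown 7 days at 30°C on medium lacking adenine and uracil. Input and output plasmid inserts were sequenced by Illumina. The nucleation score is the DiMSum log enrichment of output over input reads, centred on the mode score of non-aggregating sequences. Sequences with under 100 input reads were excluded.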

Substance	amyloid nucleation score
CHMCVVLAV	inactive
CICKFTDLMHTGACLNILSR	1.58 ± 0.11
CIGIYFLIRGTYILIVFSL	-0.607 ± 1
CIKIIIFNVERLVALIIVSL	inactive
CILKHSGR	inactive
CINIGVMDEWGVAVTLLVKN	inactive
CIPIMRTPLGTPSN	inactive
CIRLRKANINRKDQKRGCMV	inactive
CIWHLHLLFLEGVYV	inactive
CKAESLWFNGLF	inactive
CKEHLHQLFMGRCSTV	inactive
CKGLIFISSFANVVLN	1.52 ± 0.12
CKLNICRNVEETTIFRLGDV	1.39 ± 0.11
CKLRLWSEFSLVTSRSIYIA	inactive
CKSNKCSAVMVLVA	inactive
CKSSWDVVMSSVSDWFWDGA	inactive
CLDHIAPKRKIQEVGLS	inactive
CLFCSALEL	1.99 ± 0.072
CLIFVWATIDYNYFCLS	0.6 ± 0.16
CLILSWYKYCSRGEMMHMKH	inactive
CLIVTLTHMS	1.64 ± 0.062
CLLRSSCGWMCLRTGTHCVV	0.729 ± 0.25
CLLTLMREVSCLLYFYHRAW	1.56 ± 0.091

Substance	amyloid nucleation score
CLMSVSAPFHVFALYIQLFC	inactive
CLNGPFVCLKYYVCFIAMMF	inactive
CLNNRSFNPKMQYPLVTMDH	inactive
CLSSSINMTMVYCCNSLMFG	2.13 ± 0.069
CLSTPMVMLICFM	0.904 ± 0.29
CLYSSCALGIARDWVVLL	inactive
CMGMCELFNTWCYEGKTPIS	inactive
CMVSSVKLNFIYIGYGDSGW	inactive
CMVSYASDTGGKESELACVV	inactive
CMYSFGEL	inactive
CNANGASAVKF	inactive
CNFLGSRLGYFGNYIFI	inactive
CNILIISTTLTPKITLTFYC	1.64 ± 0.13
CNISERENALETHTMNKFVV	inactive
CNLDLVANT	inactive
CNRWNHL	inactive
CNSGWGTYVV	inactive
CPCRHVFSRLSPF	inactive
CPNVYIAIPIFS	-0.423 ± 0.63
CPRGPWFFTTTAVTSALNIS	-0.016 ± 0.86
CPTASHNIALLTYDQTRTQY	inactive
CPVKHGGLHYSNQSYHSSGG	inactive
CPYSFEAAEYFRYGRVGYFT	inactive

Substance	amyloid nucleation score
CQCMSFIRTNSYKDFT	inactive
CQLAV	inactive
CQLGSSLGDDTEGSVAIPAV	inactive
CQRGTVADAPYLQRRLGLLY	inactive
CQSSDFTEFVRKVKRPPQAC	inactive
CRACGRWCNSSYIYIY	inactive
CRCFLPWGWLV	inactive
CRDKANVLAAVRRR	inactive
CRHINFMSIIFSFGDSSYRF	2.2 ± 0.08
CRHPTGKACELCELACFN	inactive
CRQSVCFGAVC	inactive
CRTQL	inactive
CRVFRNNDYSKVSFWLVSVF	inactive
CRVLDFSFSYFGMIFKLGTI	inactive
CRVWEDDFLSNRSGLVRHLT	inactive
CRYDKSSLDY	inactive
CSAIFCVVRGFRRVK	inactive
CSAWGLRKF	0.673 ± 0.2
CSGAIHYPYRLMRERNFTGR	inactive
CSGLSDLSVTLNCYVNCIFL	2.48 ± 0.077
CSGTSSFRDLTCGCRHCFVG	1.3 ± 0.099
CSNGFLFTVRVDTGFPTRI	inactive
CSPRTWCFGYNLFDM	2.5 ± 0.074

Substance	amyloid nucleation score
CSRFIREADTWRNRDYWWVF	-0.349 ± 1.2
CSRPVVLIKGLLWAFRRWAY	inactive
CSVQVGITSCSNGGYSNVYA	inactive
CSYWTGYCCQIVGLKSFGLV	2.4 ± 0.083
CTGCTFRYEKKDYNLGCLCK	inactive
CTGLECIGTAYRQGGDRVLW	inactive
CTPFTLECW	-0.193 ± 1.1
CTQGMVYIS	inactive
CVFCVNRTLLIVWIMVRY	inactive
CVFIFLKSCKYKVVKGINGV	inactive
CVHNLN	inactive
CVIITFESRILDELICDTVR	inactive
CVLCYRWSHMVLTPGMTGRD	inactive
CVMAMPSNIEV	inactive
CVMNRN	inactive
CVPCRQHTYSWDFVRVHLTV	inactive
CVRTGWIIMDSNKLD	inactive
CVRVSPRSDYNQMMVRMGQW	inactive
CVSFNLVSWVFNYCS	2.55 ± 0.056
CVVYLWWLVSASMLCSNWFG	inactive
CVWAVGVFFGFMIQRQDEER	inactive
CVWLVVTSDFLFRQLL	1.73 ± 0.11
CVWML	inactive

Substance	amyloid nucleation score
CVYYSRKG	1.95 ± 0.073
CWGST	inactive
CWLYFLS	inactive
CWNLISWSKEYA	inactive
CWYLVLSRLLCKNSRLHSNR	inactive
CYCPHPNGESFCFSVSWDTN	inactive
CYIMTYKSLNTF	inactive
CYLMYLSEILAYHVATWQAT	inactive
CYNGTLGCGYRVLIRVSGSW	inactive
CYNWHMFTEYCCSSSQARSM	0.195 ± 0.57
CYPFLWYCPNVCTVVSFDK	2.46 ± 0.062
CYTIRLWARLNLCRGIKS	-0.439 ± 1.1
CYWIASRLFTKLSNYLSISG	inactive
CYYRCDCLCMTWWGHRVIVV	inactive
DAGLRLLYSSLTGRL	inactive
DAIPARVYYGCQFILCRNDL	2.85 ± 0.084
DALAVSINCSLFRCCSM	3.3 ± 0.055
DAYGLYYTSYYPGT	inactive
DCDQVPI	inactive
DCFNNWWVTHYQQINFPTVA	inactive
DCILGGSMMGRNTSMSAHDN	inactive
DCKMRIEICDMGLCTEHRKC	inactive
DCLASGMISFRVTMSNRYTI	0.241 ± 0.59

Substance	amyloid nucleation score
DDICIEKARDVVSMSPRSFR	inactive
DDMTYGSVCNKSGRTPLLPS	inactive
DDSMHDGLRVTRRVCKRGSF	inactive
DEEQF	-0.143 ± 0.34
DEFVKYQP	inactive
DEVVWY	inactive
DFILVSLLREDTNVGTACRV	inactive
DFRLPNSPYAHCYLMHRLII	inactive
DFRSLWTRLSSHRSAFYLLS	inactive
DFSMSVNSA	inactive
DFTDYMPIMYTLHRVVIQMY	inactive
DFTYEL	inactive
DFWKL	inactive
DGCSRVMFNASGAMRRKVAN	inactive
DGEGN	inactive
DGKGPMVYSGMCCRTFRGLV	inactive
DGNKNYDVKFIRLVTNI	inactive
DHPYQRLIEWWLLCIYGSMY	inactive
DIFVDN	inactive
DIGMDGYRLLRRSQQRYFMN	inactive
DILTDQS	inactive
DISQGLRRNSSGYLVQRGYA	inactive
DIVLFLG	inactive

Substance	amyloid nucleation score
DIVVGAQRNELFS	inactive
DIYFCYNIDFLYRVTLRQLR	inactive
DKCRVCISFC	1.14 ± 0.13
DKNSWLYSASEYIWFFNTES	inactive
DKSDQSSRRFSGTRAYFSTM	inactive
DKSSSFLVRGLLLHTSRATQ	inactive
DKVTHQCSISMSWAWRVHVV	inactive
DLAWPRMPTIQARVEQYCLI	inactive
DLDECKFPINELSFHSSMGM	1.83 ± 0.091
DLLPLVTKYFSIGLH	inactive
DLRVPLNTFRNYHVSRELVR	inactive
DLSPRYL	inactive
DLSRDMTNVSCRKSGLWGSG	inactive
DLSVWRALYNGLLQRASH	inactive
DLVNVYVLPLVS	inactive
DLVRITMIVYYVAASHMVAS	inactive
DMACMVFGWE	inactive
DMATVIVSKLFTVVVWYLFW	inactive
DMCNYAFDGLCIYNYVNVVG	inactive
DMFVECRLISFNFTFIRVLI	inactive
DMGTYVSCRRIFKNGRYSGC	inactive
DMLHLWYLSVG	inactive
DMRVFANMWLVEIPVPS	inactive
